Values of other authors in article PMC7508936.

Molecular target: galectin-1 (Homo sapiens) (UniProt P09382)
Chain of UniProt P09382 (P09382 2-135): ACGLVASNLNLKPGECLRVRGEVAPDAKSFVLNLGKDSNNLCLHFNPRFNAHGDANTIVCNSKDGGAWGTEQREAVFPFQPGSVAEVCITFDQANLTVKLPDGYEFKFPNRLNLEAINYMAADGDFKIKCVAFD

Kd: 130 nM
Substance: PSG1 (from UniProt P11464)
